The data set in a line: label from the status in PepcDB records.
As to “MKISLVTVTFNSAKTLCDTIHSVLSQSYTNIEYIIVDGLSNDETVTLIKEYEPLFQGRLKWISEKDKGLYDAMNKGIRMSTGDIVGIINSDDFYHRGDVLEKVAESFEAGETEAIYGDVRFVNPDNLDRTVRYYSSKRFVPSLFRFGFMPAHPTFFTYRKYFDQFGYYKTNYKIAADYELLVRFLYVHRLKSKYLPLDFMKMRTGGASTASIKSNILLNKEIVRACKENGIWTCYPLLLLKYLVKVFELIFIKKLEHHHHHH”, the protein production result is on record as “not failed”.

“MNGDSKPYPLIVQQVMLFTTHPAHGVKAGMAKALHMIHAGRKVLVFIALLVSASLAMADVAIPPLKARVTDLTGTLSANEATQLEQKLAAFEARKGSQIAVLIVSTTQPETIEQYSIRVVDAWKLGRKGIDDGVLLLVAKQDRTVRVEVGYGLEGVLPDAVAKRITDEIIVPEFRQGRFAAGINAGVDRIIGVIEGEPLPPPPARSARGGDSSAAADILVNNIIFVFILLFIAAKVFQSIFGRFLGATLLSTAAAIIVWLVFASIFLALIAAAFAFFISLFGHAGSGIYRGGRGWPGGFGGYGGWGGRGGPGGFGGGGGFGGGGGGFGGGGASGRW”: the protein production result is on record as “failed”.

“MGVLAEVYEMLNTCNRCGFCHTACKTYKVDGAETMVSRGRVQLIKAVADGVIEADADYEDSINSCLLCGECAVACPSGVSAKELVMAARRDLKLRHGVKPFVKSYALKTLANPNKLERAFKLFGGLGKNVLNKVDGMDYFRGVDIKGMNVAKVPFLNQVPERILVAQPKHKVAFYVGCFLNFSLDDTAHSVVKVLTKNDCEVIIPKEQVCCGLPQYAYGDFETAKVNARKTIDTFMAKDVEAIITACGSCAAMLKEDYLKLFADDAAYLPRVKSFCAKVKEFSEYMAEIGVDESKFHNSTPVKVTYHDPCHMVRGIKVTAQPRQMLKSLPRVEYIEMFEANRCCGASGLVQAFYHEMSTKVTREKAKNIQDSGAEVVATSCPACIMRLQGGVSMAGQKQKVMHVADLMAKAYEN”: the protein production entry was “failed”.

With “MNDIQQALQEALTHHQAGRLGEAKTLYDAILHAQPGQPDAMHFLGLLACQLKQYDAGLALMERSLAERPDASYFNNLGNMLRECGRLDDAIAHYRRAVALRPDYPEAHNNLGNALRDARDPAEAMRSCSRAIELRPGYAEAYNNLGNVLQDLGELDAAAASYGKAIAFHPAYAEAHSNLGNVLRAQERHADAIVHYRRAIELNPALRVAHRGLAIALRATDDFDGALEHARAGLEPDDAEGHCMLGRSLRSMNDFDGAARLFERACEIDPGYAPAWCRLGELRCQQGEYEESLRLCRHAIELDPELADAYNFLGLAYHNLDRMAASELSHRHAIDLNPDDADAHHNLAAALFRLDKLDEAMSEYRIAQELGVDPVKIQLTLGDILWAKRDFSGAVAAFREAVEHDPHRAYARLLFNMSSSPAFAPEEWVVDAQRYGDYLARDARLLSHDREQRARQARGRPLRVGFVSGDLRQHPVGIFLESVLAHLDRTRIEPHAYVTFVVEDDVTARLKTGFASWKKLTCLNRDQAARMIHDDGIDVLVDLAGHTNWSGLPVFAHRPAPVQASWLGFFATTGCRAIDYFIGDPHTLPADEAHHFVEQPWHLPDSYLCFTPPAYDVAVGPLPMATNGGVTFGCFGKLTKISDDVIALWSRLLHALPDARLMLKAHELGASDLNRATLERFARHGIGAHQLILEGGSPRAEYFNAYNRIDIALSPFPYPGGTTTAEALWMGVPVIGMKGGRFVTHICESLLHAAGMGDWIAADEDAYLAKAIAFAGDRDALAALRATLRERTLASPLCDAARFARNLEDAFHGMWARYVAGDTDGART”, the protein production result is on record as “failed”.

Regarding “MAGRVHPRQLAFSLPHAESLSRDNFLEGPANAAGLALIDGWPEWPNRIMWLAGPEGSGKSHLAAIWAEEAGARSTTANALSAAGVPGALATGALVVEDLKAKDFDERALFHLMNLAREDGAYVLFTGRDVPAALDIELNDLRSRLRAVPVVMLLPPDDQLFRGLIVKFCADRQLTVDESVVSYLATRLERSSAAARQAVELLDSEALRLGRPVTRALAAELLRDALEHHHHHH”, the protein production result was “not failed”.

“MTPTPSFAAYVGAHWAAVVIYVIATVVNVYGLLFRSEPAERWSYRLISVGWMIHSVVIAYWWWVTGHGPYLSRNEVLSSDAWIALTVFMCFQRLYPRVRPASIVVFPSVFLMIALGLFFDVQIRTLPPTFSGIWLVIHIAFYKIALGTILIALACSIFLVLKKRTPFAWLQRLPDLESLDLHAYRFAGFGFIIWAIAMLAGSIWAYKSWGRFWGWDPVENWSLITWILFGIHLHLRRFFRWSGERAALFYVVCFIFSLVALFYTSHMDTSIHMEYFR”: the protein production entry was “failed”.

Take “MSLNVIDLFSGVGGLSLGAARAGFDVKMAVEIDQHAINTHAINFPRSLHVQEDVSLLNAEIIKGFFKNDMPIDGIIGGPPCQGFSSIGKGNPDDSRNQLYMHFYRLVSELQPLFFLAENVPGIMQEKYSGIRNKAFNLVSGDYDILDPIKVKASDYGAPTIRTRYFFIGVKKSLKLDISDEVFMPKMIDPVTVKDALYGLPDIIDANWQSDSESWRTIKKDRKGGFYEKLWGQIPRNVGDTESIAKLKNNIISGCTGTLHSKIVQERYASLSFGETDKISRSTRLDPNGFCPTLRAGTARDKGSFQAVRPIHPYHPRVITPREAARLQGFPDWFRFHVTKWHSFRQIGNSVSPIVAEYILKGLYNLLNEGHHHHHH”: the protein production result is reported as “not failed”.

“MMRLANGIVLDKDTTFGELKFSALRREVRIQNEDGSVSDEIKERTYDLKSKGQGRMIQVSIPASVPLKEFDYNARVELINPIADTVATATYQGADVDWYIKADDIVLTKDSSSFKAQPQAKKEPTQDKLEHHHHHH”: the protein production entry is on record as “not failed”.

With “MAGNFWQSSHYLQWILDKQDLLKERQKDLKFLSEEEYWKLQIFFTNVIQALGEHLKLRQQVIATATVYFKRFYARYSLKSIDPVLMAPTCVFLASKVEEFGVVSNTRLIAAATSVLKTRFSYAFPKEFPYRMNHILECEFYLLELMDCCLIVYHPYRPLLQYVQDMGQEDMLLPLAWRIVNDTYRTDLCLLYPPFMIALACLHVACVVQQKDARQWFAELSVDMEKILEIIRVILKLYEQWKNFDERKEMATILSKMPKPKPPPNSEGEQGPNGSQNSSYSQS”, the protein production result is “not failed”.

For the sequence “MGHHHHHHSHMGEIESYCNKELGPLPTKAPTLSKNVLDLFSLKGKVASVTGSSGGIGWAVAEAYAQAGADVAIWYNSHPADEKAEHLQKTYGVHSKAYKCNISDPKSVEETISQQEKDFGTIDVFVANAGVTWTQGPEIDVDNYDSWNKIISVDLNGVYYCSHNIGKIFKKNGKGSLIITSSISGKIVNIPQLQAPYNTAKAACTHLAKSLAIEWAPFARVNTISPGYIDTDITDFASKDMKAKWWQLTPLGREGLTQELVGGYLYLASNASTFTTGSDVVIDGGYTCP”, the protein production entry is on record as “failed”.

Consider “MVDISLIIGGPQGGGIESAGQIAIKSMVLLGYEVLGSREYHSNIMGAHSYYHLRVQQHRPRSLKLPVDGVLALDAESVFTHFRDVRPGGILVYDPGTKSTRVDAIQPMAGPLKKRLKSLFDSRGMQPVVESAVKLAEEAGARIVGLPLKEMLKTLSERTGAPVARVSRALNTLGLASMLYMLGVPVEYIEKAISLQFAGKEKVINMNVEAVRIAVDYVREAFGEPESRLPPGPRRGQTMMVATGNDLVAMGKIVGGLGVITYYPITPSSDEALYVEKHSYISIDGPLAEKLGYDKIAVAIVQMEDELASINAVLGAAAAGARASTTTSGPGFSLMNEAVSLAVEAEIPVVVTLWMRAGPSTGMPTRTGQQDLLHSIFSGHGDAPKIVLASGDHVEAFYDAIKAFNWAEEFQTPVIHLLDKYLASSMVSLAREDLDPSKVPITRGKLLDNPPADYRRYEVVEDGISPRARLGSATMVITGLEHDEYGYATEDPVMREIMMFKRERKFKVIEERIPDEEKAVLHGDSEASVALVSFGSTKQPILEALEMLRDEGVRARFAQVRLLYPFPGRLVEEMLEGVEKVIMVEQNLLGQLAMLLRAHTSIKPDSSIVKINGRPLYSFEVAGAVKRILETGEERVVVSHGS”, for which the protein production result is on record as “failed”.

“MVTLEYNANSKLITASDAVVALSTETNIDQINVLTTSLIGETNPNFTPQPNEALSKMIKGLFESGMKNLQQKKLNEALKNVSLAIEMAQRKRAPWEAFAIQLPELHFMLRSKIDLCLILGKHLEALQDLDFLLGTGLIQPDVFVRKADCLLKLRQWEEARATCERGLALAPEDMKLRALLIETARNLAEYNGE”: the protein production result was “failed”.

These data come from a protein production outcome set (Wang et al. 2014).
